Experimental data reported in PMC10881392.

Tests used:
[1] = target: CPSF6 (313-327) peptide, Q16630-2; experiment: FFS; conditions: parent: est. 1.0, read off a plot
CypA, GFP fusion = CypA, GFP fusion (UniProt P62937); experiment: FFS; conditions: parent: est. 1.0, read off a plot
[2] = target: GFP-Nup214 (1210-2090), FG-repeat domain (UniProt P35658); experiment: FFS; conditions: n = 15 scans; parent: est. 1.0; read off a plot
GFP-Nup42 (full-length) = GFP-Nup42 (full-length) (UniProt O15504); experiment: FFS; conditions: n = 10 scans; parent: est. 1.0; read off a plot
GFP-Nup58 (full-length) = GFP-Nup58 (full-length) (UniProt Q9BVL2); experiment: FFS; conditions: n = 15 scans; parent: est. 1.0; read off a plot
GFP-Nup62 (full-length) = GFP-Nup62 (full-length) (UniProt P37198); experiment: FFS; conditions: n = 10 scans; parent: est. 1.0; read off a plot
[3] = target: GFP-Nup98 (1-499), FG-repeat domain (UniProt P52948); experiment: FFS; conditions: n = 10 scans; parent: est. 1.0; read off a plot
[4] = target: GFP-Pom121 (266-1249), transmembrane domain truncated (UniProt Q96HA1); experiment: FFS; conditions: n = 10 scans; parent: est. 1.0; read off a plot
[5] = target: Nup153 (1407-1423) peptide (UniProt P49790); experiment: FFS; conditions: parent: est. 1.0, read off a plot
[6] = target: Nup98 fragment 118–345 (13 FGs); experiment: FFS; conditions: n = 10 scans; parent: est. 1.1; read off a plot
[7] = target: Nup98 fragment 1–119 (13 FGs); experiment: FFS; conditions: n = 10 scans; parent: est. 1.1; read off a plot
[8] = target: Nup98 fragment 346–499 (13 FGs); experiment: FFS; conditions: n = 10 scans; parent: est. 2.4; read off a plot
[9] = target: HIV-1 capsid (CA) unassembled CA (Human immunodeficiency virus 1) (UniProt O93182); conditions: cited from earlier work
[10] = target: HIV-1 capsid (CA) hexamer CA (Human immunodeficiency virus 1) (UniProt O93182); conditions: cited from earlier work
[11] = target: unstructured FG domain of Nup98 (residues 1-499), His-tagged, as phase-separated condensates (human) (UniProt P52948)
[12] = target: HIV-1 capsid (CA) CA (Human immunodeficiency virus 1) (UniProt O93182); conditions: cited from earlier work

CPSF6 (313-327) peptide, Q16630-2, sequence (Q16630 whole entry, looked up, the tested form may be a part): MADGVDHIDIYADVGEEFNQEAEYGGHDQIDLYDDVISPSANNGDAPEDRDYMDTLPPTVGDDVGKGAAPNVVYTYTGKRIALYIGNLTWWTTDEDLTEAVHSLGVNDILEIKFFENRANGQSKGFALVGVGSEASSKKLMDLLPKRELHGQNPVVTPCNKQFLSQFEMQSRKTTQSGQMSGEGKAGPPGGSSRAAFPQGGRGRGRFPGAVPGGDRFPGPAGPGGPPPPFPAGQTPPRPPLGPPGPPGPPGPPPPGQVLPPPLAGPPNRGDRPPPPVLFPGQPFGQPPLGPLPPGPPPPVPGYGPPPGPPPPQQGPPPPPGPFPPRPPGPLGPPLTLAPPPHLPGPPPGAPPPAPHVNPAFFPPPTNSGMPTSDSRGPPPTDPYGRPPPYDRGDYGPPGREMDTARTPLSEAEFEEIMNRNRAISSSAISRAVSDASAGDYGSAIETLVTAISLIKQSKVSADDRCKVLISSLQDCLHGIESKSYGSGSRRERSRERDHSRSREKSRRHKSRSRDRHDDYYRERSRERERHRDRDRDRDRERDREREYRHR
Nup153 (1407-1423) peptide, sequence (P49790 whole entry, looked up, the tested form may be a part): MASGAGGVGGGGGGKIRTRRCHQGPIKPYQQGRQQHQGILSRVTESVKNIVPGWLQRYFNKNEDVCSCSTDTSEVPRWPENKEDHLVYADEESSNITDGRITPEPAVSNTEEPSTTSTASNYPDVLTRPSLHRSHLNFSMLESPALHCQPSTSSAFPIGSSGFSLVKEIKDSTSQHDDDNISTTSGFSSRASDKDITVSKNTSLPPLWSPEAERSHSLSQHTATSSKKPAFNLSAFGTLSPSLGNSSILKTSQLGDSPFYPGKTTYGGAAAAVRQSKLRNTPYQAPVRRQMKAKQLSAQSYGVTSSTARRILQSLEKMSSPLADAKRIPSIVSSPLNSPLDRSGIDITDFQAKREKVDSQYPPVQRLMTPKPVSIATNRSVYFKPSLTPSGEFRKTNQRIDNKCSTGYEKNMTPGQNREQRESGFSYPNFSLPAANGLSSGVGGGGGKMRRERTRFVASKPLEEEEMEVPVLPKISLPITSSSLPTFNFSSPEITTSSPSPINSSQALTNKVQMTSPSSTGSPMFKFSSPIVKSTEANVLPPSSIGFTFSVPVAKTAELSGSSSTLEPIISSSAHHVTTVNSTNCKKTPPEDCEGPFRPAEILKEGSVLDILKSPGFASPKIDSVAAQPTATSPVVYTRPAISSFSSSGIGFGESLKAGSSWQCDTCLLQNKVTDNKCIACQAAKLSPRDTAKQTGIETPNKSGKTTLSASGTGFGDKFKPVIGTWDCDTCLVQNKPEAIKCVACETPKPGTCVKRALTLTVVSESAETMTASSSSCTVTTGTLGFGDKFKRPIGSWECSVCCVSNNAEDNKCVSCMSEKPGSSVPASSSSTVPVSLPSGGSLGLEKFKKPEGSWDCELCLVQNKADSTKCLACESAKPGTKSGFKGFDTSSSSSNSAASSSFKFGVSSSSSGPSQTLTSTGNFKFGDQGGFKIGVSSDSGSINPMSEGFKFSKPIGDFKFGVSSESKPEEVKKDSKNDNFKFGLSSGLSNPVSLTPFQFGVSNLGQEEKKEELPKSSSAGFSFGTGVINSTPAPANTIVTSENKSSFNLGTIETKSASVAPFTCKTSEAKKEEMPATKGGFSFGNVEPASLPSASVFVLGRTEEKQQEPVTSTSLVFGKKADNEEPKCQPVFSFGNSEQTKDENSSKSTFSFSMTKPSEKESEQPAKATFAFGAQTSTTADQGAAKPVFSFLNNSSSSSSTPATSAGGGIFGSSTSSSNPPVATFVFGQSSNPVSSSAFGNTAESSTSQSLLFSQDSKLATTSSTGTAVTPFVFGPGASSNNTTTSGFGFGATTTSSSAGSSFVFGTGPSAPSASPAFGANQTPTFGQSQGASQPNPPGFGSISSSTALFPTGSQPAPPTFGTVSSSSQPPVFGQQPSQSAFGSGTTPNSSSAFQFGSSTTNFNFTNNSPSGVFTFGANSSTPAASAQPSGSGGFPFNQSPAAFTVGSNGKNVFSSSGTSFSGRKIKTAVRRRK

capsid-like particles (CLPs; CA A204C cross-linked assemblies labelled with Alexa Fluor 568), wild-type N57D
ratio to parent ([1]; n = 10 scans): 0.03
ratio to parent (CypA, GFP fusion; n = 10 scans): 1.4
ratio to parent [2]: 0.2
ratio to parent (GFP-Nup42 (full-length)): 0.35
ratio to parent (GFP-Nup58 (full-length)): -0.1
ratio to parent (GFP-Nup62 (full-length)): -0.1
ratio to parent [3]: 0.35
ratio to parent [4]: -0.02
ratio to parent ([5]; n = 9 scans): 0.18
response [6]: 0.22
response [7]: 0.19
response [8]: 0.2

capsid-like particles (CLPs; CA A204C cross-linked assemblies labelled with Alexa Fluor 568), wild-type A77V
ratio to parent ([1]; n = 10 scans): 0.15
ratio to parent (CypA, GFP fusion; n = 10 scans): 1.6
ratio to parent [2]: 1.4
ratio to parent (GFP-Nup42 (full-length)): 1.2
ratio to parent (GFP-Nup62 (full-length)): 1.7
ratio to parent [3]: 1.4
ratio to parent [4]: 1.7
ratio to parent ([5]; n = 10 scans): 3.9

capsid-like particles (CLPs; CA A204C cross-linked assemblies labelled with Alexa Fluor 568), wild-type N74D
ratio to parent ([1]; n = 8 scans): 0
ratio to parent (CypA, GFP fusion; n = 8 scans): 1.3
ratio to parent [2]: 1.8
ratio to parent (GFP-Nup42 (full-length)): 1.8
ratio to parent [3]: 1.7
ratio to parent [4]: 1.9
ratio to parent ([5]; n = 10 scans): 1.4

CPSF6 313-327 (from UniProt Q16630)
Kd [9]: 700 µM
Kd [10]: 50 µM

capsid-like particles (CLPs; CA A204C cross-linked assemblies labelled with Alexa Fluor 568), wild-type (complex)
median penetration depth of unlabelled CLPs into Nup98 condensates, cryo-ET [11]: 65 nm

HIV-1 capsid (CA) CA (from UniProt O93182)
Kd [12]: 40 µM
